Among the data in the Human Domainome abundance scans (Beltran et al. 2025) are abundance fitness values, retold here.

First the molecules themselves.
B1: KAT8 regulatory NSL complex subunit 2, residues 28 to 91; numbered along this chain, Q9H9L4 (parent)
chain: CAFTHRPCSHPRLEGQEFCIKHILEDKNAPFKQCSYISTKNGKRCPNAAPKPEKKDGVSFCAEH

± gives the uncertainty stated by the source.

Variants of B1 are the subject of the series. In words: abundance fitness (aPCA) (normalised: wild type 0, dead -1); higher = more abundant; growth selection in yeast, the domain comes from the species named. The following applies: Homo sapiens.
On to CAFTHRPCSHPRLEGQEFCIKHILEDKNAPFSQCSYISTKNGKRCPNAAPKPEKKDGVSFCAEH [K32S], for which the abundance fitness is -0.093 ± 0.054.

For CAFTHRPCSHPRLEGQEFCIKHILEDKNAPFEQCSYISTKNGKRCPNAAPKPEKKDGVSFCAEH [K32E], the abundance fitness is -0.026 ± 0.083.

As for CAFTHRPCSSPRLEGQEFCIKHILEDKNAPFKQCSYISTKNGKRCPNAAPKPEKKDGVSFCAEH [H10S], the abundance fitness is -0.042 ± 0.061.

For CAFTHRPCSDPRLEGQEFCIKHILEDKNAPFKQCSYISTKNGKRCPNAAPKPEKKDGVSFCAEH [H10D], the abundance fitness was -0.28 ± 0.18.

Regarding CAFTHRPCSAPRLEGQEFCIKHILEDKNAPFKQCSYISTKNGKRCPNAAPKPEKKDGVSFCAEH [H10A], the abundance fitness was -0.126 ± 0.066.

Regarding CAFTHRPCSHPRLEGQEFCIKHILEDKNAPFKQCSYISTKNGKRCPAAAPKPEKKDGVSFCAEH [N47A], the abundance fitness is -0.002 ± 0.059.

Consider CAFTHRPCSHPRLEGQEFCIKHILEDKNAPFKQCSYISTKNGKRCPNAHPKPEKKDGVSFCAEH [A49H], for which the abundance fitness is -0.147 ± 0.11.

On to CAFCHRPCSHPRLEGQEFCIKHILEDKNAPFKQCSYISTKNGKRCPNAAPKPEKKDGVSFCAEH [T4C], for which the abundance fitness is -0.102 ± 0.2.

For CAFTHRPCSHPRLEGQEFCIKHILEDKNCPFKQCSYISTKNGKRCPNAAPKPEKKDGVSFCAEH [A29C], the abundance fitness is -0.151 ± 0.083.

For CAFTHRPCSHPRLEGQEFCIKHILEDKNVPFKQCSYISTKNGKRCPNAAPKPEKKDGVSFCAEH [A29V], the abundance fitness was -0.196 ± 0.047.

In the case of CAFTHRPCSHPRLEGQEFCIKHALEDKNAPFKQCSYISTKNGKRCPNAAPKPEKKDGVSFCAEH [I23A], the abundance fitness was -0.078 ± 0.068.

Consider CAFTHRPCSHPRLEGQEFCIKHCLEDKNAPFKQCSYISTKNGKRCPNAAPKPEKKDGVSFCAEH [I23C], for which the abundance fitness is -0.154 ± 0.069.

As to CAFTHRPCSHPRLEGQEFCIKHILEDKNAPFKQCSYSSTKNGKRCPNAAPKPEKKDGVSFCAEH [I37S], the abundance fitness was -0.061 ± 0.062.

Consider CAFTHRPCSHPRLEGQEFCIKHILEDKNAPFKQCSYKSTKNGKRCPNAAPKPEKKDGVSFCAEH [I37K], for which the abundance fitness was -0.107 ± 0.1.

Take CAFTHRPCSHPRLEGQEFCIKHILEDKNAPFKQCSYDSTKNGKRCPNAAPKPEKKDGVSFCAEH [I37D]: the abundance fitness was -0.302 ± 0.15.

For CAFTHRPCSHPRLEGQEFCIKHILEDKNAPFKQCSYMSTKNGKRCPNAAPKPEKKDGVSFCAEH [I37M], the abundance fitness turned out to be 0.046 ± 0.092.

With CAFTHRRCSHPRLEGQEFCIKHILEDKNAPFKQCSYISTKNGKRCPNAAPKPEKKDGVSFCAEH [P7R], the abundance fitness is -0.003 ± 0.058.

Take CAFTHRECSHPRLEGQEFCIKHILEDKNAPFKQCSYISTKNGKRCPNAAPKPEKKDGVSFCAEH [P7E]: the abundance fitness is -0.063 ± 0.078.

Regarding CAFTHRPCSHPRLEGQEFCIKHILEDKNAPFKQCSYISTKNGKRCPNAARKPEKKDGVSFCAEH [P50R], the abundance fitness is -0.106 ± 0.069.

For the variant CAFTHRPCSHPRLEGQEFCIKHILEDKNAPFKQCSYISTKNGKRCPNAAKKPEKKDGVSFCAEH [P50K], the abundance fitness is -0.176 ± 0.14.

As for CAFTHRPCSHPRLEGQEFCIKHILEDKNAPFKQCSYISTKNSKRCPNAAPKPEKKDGVSFCAEH [G42S], the abundance fitness is -0.063 ± 0.046.

On to CAFTHRPCSHPRLEGQEFCIKHILEDKNAPFKQCSYISTKNGKREPNAAPKPEKKDGVSFCAEH [C45E], for which the abundance fitness is -0.193 ± 0.09.

In the case of CAFTHRPCSHPRLEGQEFCIKHILEDKNAPFKQCSYISTKNGKRVPNAAPKPEKKDGVSFCAEH [C45V], the abundance fitness is -0.465 ± 0.063.

As to CAFTHRPCSHPRLEGQEFCIKHILEDKNAPFKQCSYISTKNGKRPPNAAPKPEKKDGVSFCAEH [C45P], the abundance fitness was -0.561 ± 0.078.

Take CAFTHRPCSHPRLEGQEFCIKHILEDKNAPFKQCSYISTKNGKRCPNMAPKPEKKDGVSFCAEH [A48M]: the abundance fitness was -0.159 ± 0.053.

With CAFTHRPCSHPRLEGQEFCIKHILEDKNAPFKQCSYISTKNGKRCPNAAPKPEKKDGFSFCAEH [V58F], the abundance fitness is -0.063 ± 0.08.

For CAFTHRPCSHPRLEGQEFCIKHILEDKNAPFKQCSMISTKNGKRCPNAAPKPEKKDGVSFCAEH [Y36M], the abundance fitness is -0.216 ± 0.069.

In the case of CAFTHRPCSHPRQEGQEFCIKHILEDKNAPFKQCSYISTKNGKRCPNAAPKPEKKDGVSFCAEH [L13Q], the abundance fitness is -0.176 ± 0.13.

With CAFTHRPCSHPNLEGQEFCIKHILEDKNAPFKQCSYISTKNGKRCPNAAPKPEKKDGVSFCAEH [R12N], the abundance fitness is -0.279 ± 0.084.

Consider CAFTHRPCSHPLLEGQEFCIKHILEDKNAPFKQCSYISTKNGKRCPNAAPKPEKKDGVSFCAEH [R12L], for which the abundance fitness was -0.27 ± 0.06.

For CAFTHRPCSHPRLEGQEFCIKHILEDKNAPFKQCSYISTKNGKRCPNAAPKPEKKDGVLFCAEH [S59L], the abundance fitness was -0.037 ± 0.078.

Regarding CAFTHRPCSHPRLEGQEFCIKHILEDKNAPFKQCSYISTKNGKRCPNAAPKPEKKDGVNFCAEH [S59N], the abundance fitness is -0.189 ± 0.084.

For CAFTHRPASHPRLEGQEFCIKHILEDKNAPFKQCSYISTKNGKRCPNAAPKPEKKDGVSFCAEH [C8A], the abundance fitness was -0.883 ± 0.076.

In the case of CAFTHRPFSHPRLEGQEFCIKHILEDKNAPFKQCSYISTKNGKRCPNAAPKPEKKDGVSFCAEH [C8F], the abundance fitness was -1.45 ± 0.15.

Take CAFTHRPMSHPRLEGQEFCIKHILEDKNAPFKQCSYISTKNGKRCPNAAPKPEKKDGVSFCAEH [C8M]: the abundance fitness was -0.937 ± 0.084.

Turning to CAFTHRPCSHPRLEGQEFCIKHILEDKNAPFKQCSYISTKNGKRCANAAPKPEKKDGVSFCAEH [P46A], the abundance fitness was -0.119 ± 0.072.

In the case of CAFTHRPCSHPRLEGQEFCIKHILEDKNAPFKQCSYISTKNGKRCSNAAPKPEKKDGVSFCAEH [P46S], the abundance fitness is -0.049 ± 0.04.

Turning to CAFTHRPCSHPRLEGQEFCIKHILCDKNAPFKQCSYISTKNGKRCPNAAPKPEKKDGVSFCAEH [E25C], the abundance fitness is -0.223 ± 0.14.

CAFTHRPCSHPRLEGQEFCIKHILDDKNAPFKQCSYISTKNGKRCPNAAPKPEKKDGVSFCAEH [E25D]: the abundance fitness is -0.188 ± 0.16.

In the case of CAFTHRPCSHPRLEGQEFCIKHILEDKNAPFKQVSYISTKNGKRCPNAAPKPEKKDGVSFCAEH [C34V], the abundance fitness is -0.541 ± 0.066.

For CAFTHRPCSHPRLEGQEFCIKHILEDKNAPFKQNSYISTKNGKRCPNAAPKPEKKDGVSFCAEH [C34N], the abundance fitness is -0.33 ± 0.08.

CAFTHRPCSHPRLEGQEFCIKHILEDKNAPFKQFSYISTKNGKRCPNAAPKPEKKDGVSFCAEH [C34F]: the abundance fitness was -0.664 ± 0.17.
